B1: eGFP-AANDENYSENY (peptide)
chain: eGFP-AANDENYSENY
modifications: not fully specified
B2: eGFP-AANDENYSENYADAS (peptide)
chain: eGFP-AANDENYSENYADAS
modifications: not fully specified
B3: eGFP-AANDENYALAA (peptide)
chain: eGFP-AANDENYALAA
modifications: not fully specified
B4: eGFP-AANDENYADAS (peptide)
chain: eGFP-AANDENYADAS
modifications: not fully specified

Ends that are not written are not given here.

The target in this test is T1, SspB protein (ClpX adaptor) (Escherichia coli, UniProt P0AFZ3 1-165).
T1 sequence: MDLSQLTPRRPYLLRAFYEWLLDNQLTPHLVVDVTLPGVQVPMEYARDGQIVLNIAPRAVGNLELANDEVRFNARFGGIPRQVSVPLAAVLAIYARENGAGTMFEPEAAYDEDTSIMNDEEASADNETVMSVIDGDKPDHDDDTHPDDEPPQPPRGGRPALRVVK
The test can be described thus: MST.
Consider B1, for which binding was characterised by a dissociation constant (Kd) of 100 nM.
Regarding B2, the Kd was determined as 300 nM.
With B3 the figure was 80 nM; with B4, 330 nM.

What is called Kd is the equilibrium constant for the complex coming apart. The low end stands for tighter binding, the high end for weaker binding.

The values above are taken from article doi:10.1101/2021.08.26.457770 (bioRxiv, 2021).
